Our source for the stoichiometry N values is PMC3567102.

The target of this assay is T1, wild-type Mtd (major tropism determinant), Mtd-GST fusion protein (Bordetella bronchiseptica bacteriophage), Q775D6.
T1 chain: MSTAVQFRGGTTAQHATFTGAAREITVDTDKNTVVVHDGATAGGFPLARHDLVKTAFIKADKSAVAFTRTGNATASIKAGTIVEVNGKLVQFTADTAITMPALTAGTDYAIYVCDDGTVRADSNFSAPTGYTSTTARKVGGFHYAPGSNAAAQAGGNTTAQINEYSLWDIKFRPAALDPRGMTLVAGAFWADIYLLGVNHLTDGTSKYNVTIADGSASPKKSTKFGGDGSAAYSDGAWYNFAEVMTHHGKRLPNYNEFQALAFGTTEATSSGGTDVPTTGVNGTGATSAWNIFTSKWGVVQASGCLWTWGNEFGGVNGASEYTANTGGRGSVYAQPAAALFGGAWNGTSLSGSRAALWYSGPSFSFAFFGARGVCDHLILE
Nature of the assay: SEC; size exclusion chromatography of purified Mtd-GST fusion proteins after dialysis into PBS. Conditions: remark: other sources report otherwise.

B1: wild-type Mtd (major tropism determinant), Mtd-GST fusion protein, Q775D6 1-381 (natural protein)
chain: MSTAVQFRGGTTAQHATFTGAAREITVDTDKNTVVVHDGATAGGFPLARHDLVKTAFIKADKSAVAFTRTGNATASIKAGTIVEVNGKLVQFTADTAITMPALTAGTDYAIYVCDDGTVRADSNFSAPTGYTSTTARKVGGFHYAPGSNAAAQAGGNTTAQINEYSLWDIKFRPAALDPRGMTLVAGAFWADIYLLGVNHLTDGTSKYNVTIADGSASPKKSTKFGGDGSAAYSDGAWYNFAEVMTHHGKRLPNYNEFQALAFGTTEATSSGGTDVPTTGVNGTGATSAWNIFTSKWGVVQASGCLWTWGNEFGGVNGASEYTANTGGRGSVYAQPAAALFGGAWNGTSLSGSRAALWYSGPSFSFAFFGARGVCDHLILE
Turning to B1, the stoichiometry N worked out at 6.

As usually defined, the stoichiometry N is a count of units in the complex or per binding partner.
